Data reported in publication PMC9839807 (2022).

B1: DACT1 (dishevelled binding antagonist of beta catenin 1), wildtype, Myc-tagged [human] / DVL2 (dishevelled segment polarity protein 2), Flag(3x)-tagged [not stated] (parent complex)
chain 1: MKPSPAGTAKELEPPAPARGEQRTAEPEGRWREKGEADTERQRTRERQEATLAGLAELEYLRQRQELLVRGALRGAGGAGAAAPRAGELLGEAAQRSRLEEKFLEENILLLRKQLNCLRRRDAGLLNQLQELDKQISDLRLDVEKTSEEHLETDSRPSSGFYELSDGASGSLSNSSNSVFSECLSSCHSSTCFCSPLEATLSLSDGCPKSADLIGLLEYKEGHCEDQASGAVCRSLSTPQFNSLDVIADVNPKYQCDLVSKNGNDVYRYPSPLHAVAVQSPMFLLCLTGNPLREEDRLGNHASDICGGSELDAVKTDSSLPSPSSLWSASHPSSSKKMDGYILSLVQKKTHPVRTNKPRTSVNADPTKGLLRNGSVCVRAPGGVSQGNSVNLKNSKQACLPSGGIPSLNNGTFSPPKQWSKESKAEQAESKRVPLPEGCPSGAASDLQSKHLPKTAKPASQEHARCSAIGTGESPKESAQLSGASPKESPSRGPAPPQENKVVQPLKKMSQKNSLQGVPPATPPLLSTAFPVEERPALDFKSEGSSQSLEEAHLVKAQFIPGQQPSVRLHRGHRNMGVVKNSSLKHRGPALQGLENGLPTVREKTRAGSKKCRFPDDLDTNKKLKKASSKGRKSGGGPEAGVPGRPAGGGHRAGSRAHGHGREAVVAKPKHKRTDYRRWKSSAEISYEEALRRARRGRRENVGLYPAPVPLPYASPYAYVASDSEYSAECESLFHSTVVDTSEDEQSNYTTNCFGDSESSVSEGEFVGESTTTSDSEESGGLIWSQFVQTLPIQTVTAPDLHNHPAKTFVKIKASHNLKKKILRFRSGSLKLMTTV
chain 2: MAGSSTGGGGVGETKVIYHLDEEETPYLVKIPVPAERITLGDFKSVLQRPAGAKYFFKSMDQDFGVVKEEISDDNARLPCFNGRVVSWLVSSDNPQPEMAPPVHEPRAELAPPAPPLPPLPPERTSGIGDSRPPSFHPNVSSSHENLEPETETESVVSLRRERPRRRDSSEHGAGGHRTGGPSRLERHLAGYESSSTLMTSELESTSLGDSDEEDTMSRFSSSTEQSSASRLLKRHRRRRKQRPPRLERTSSFSSVTDSTMSLNIITVTLNMEKYNFLGISIVGQSNERGDGGIYIGSIMKGGAVAADGRIEPGDMLLQVNDMNFENMSNDDAVRVLRDIVHKPGPIVLTVAKCWDPSPQAYFTLPRNEPIQPIDPAAWVSHSAALTGTFPAYPGSSSMSTITSGSSLPDGCEGRGLSVHTDMASVTKAMAAPESGLEVRDRMWLKITIPNAFLGSDVVDWLYHHVEGFPERREARKYASGLLKAGLIRHTVNKITFSEQCYYVFGDLSGGCESYLVNLSLNDNDGSSGASDQDTLAPLPGATPWPLLPTFSYQYPAPHPYSPQPPPYHELSSYTYGGGSASSQHSEGSRSSGSTRSDGGAGRTGRPEERAPESKSGSGSESEPSSRGGSLRRGGEASGTSDGGPPPSRGSTGGAPNLRAHPGLHPYGPPPGMALPYNPMMVVMMPPPPPPVPPAVQPPGAPPVRDLGSVPPELTASRQSFHMAMGNPSEFFVDVM

Variants of: B1
Assay: co-immunoprecipitation (IP: anti-Myc), band ratio quantified; parent: 1; read off a plot

Row | Variant | response
1 | chain 1 G644D | ~0.72
2 | chain 1 T367K | ~0.72
3 | chain 1 L823R | ~0.6
4 | chain 1 K630N | ~0.68
5 | chain 1 L591F | ~0.7
6 | chain 1 R568K | ~0.69
7 | chain 1 P669A | ~0.69
